Reference: PMC7615752, “The histone chaperone SPT2 regulates chromatin structure and function in Metazoa” (Nature structural & molecular biology, 2023)

Molecular target: T1, recombinant histone H3.1–H4 tetramer (NEB, M2509S) (UniProt P68431 1-136; P62805 1-103)
T1 construct: histone H3.1 of the recombinant H3.1–H4 tetramer; histone H4 of the recombinant H3.1–H4 tetramer; As I recall the NEB product is the human tetramer; also called H3–H4; histone H3–H4; source: bought: NEB, M2509S (recombinant); copies: 2 + 2
Test: pull-down; 20 pmol recombinant H3.1–H4 tetramer covalently coupled to NHS-activated magnetic beads; 5 pmol full-length SPT2 in 20 mM Tris–HCl pH 8.0, 500 mM NaCl, 0.1% Triton X-100, 0.1 mM TCEP, 1.5 h at 4 °C; washes with 700 or 800 mM NaCl
Settings: both partners purified

- binding result: binds
B1: HsSPT2, full-length (human SPT2), His6-tagged (natural protein)
chain: MDFREILMIASKGQGVNNVPKRYSLAVGPPKKDPKVKGVQSAAVQAFLKRKEEELRRKALEEKRRKEELVKKRIELKHDKKARAMAKRTKDNFHGYNGIPIEEKSKKRQATESHTSQGTDREYEMEEENEFLEYNHAESEQEYEEEQEPPKVESKPKVPLKSAPPPMNFTDLLRLAEKKQFEPVEIKVVKKSEERPMTAEELREREFLERKHRRKKLETDGKLPPTVSKKAPSQKESVGTKLSKGSGDRHPSSKGMPLPHAEKKSRPSMANEKHLALSSSKSMPGERIKAGSGNSSQPSLREGHDKPVFNGAGKPHSSTSSPSVPKTSASRTQKSAVEHKAKKSLSHPSHSRPGPMVTPHNKAKSPGVRQPGSSSSSAPGQPSTGVARPTVSSGPVPRRQNGSSSSGPERSISGSKKPTNDSNPSRRTVSGTCGPGQPASSSGGPGRPISGSVSSARPLGSSRGPGRPVSSPHELRRPVSGLGPPGRSVSGPGRSISGSIPAGRTVSNSVPGRPVSSLGPGQTVSSSGPTIKPKCTVVSETISSKNIISRSSNGQMNGMKPPLSGYRAAQGPQRLPFPTGYKRQREYEEEDDDDDEYDSEMEDFIEDEGEPQEEISKHIREIFGYDRKKYKDESDYALRYMESSWKEQQKEEAKSLRLGMQEDLEEMRREEEEMQRRRAKKLKRR
notes: human SPT2 (gene SPTY2D1), full length; source: E. coli Rosetta 2(DE3) pLysS BL21, purified (NiNTA, Flag M2 beads, Ulp1 cleavage); not shown: 2xFlag-SUMO, N-terminal, cleaved; His6, C-terminal, kept
